One substance from publication PMC6519983 can be followed below.

This assay has as its target microtubules (MTs) formed in Xenopus egg extracts (Xenopus laevis (endogenous in egg extract)). Nature of the assay: TIRF microscopy of GFP-TPX2 on microtubules; endogenous TPX2 immunodepleted and replaced with 20-30 nM (25 nM) GFP-TPX2 in Xenopus egg extract; 10 µM RanQ69L, 0.5 mM vanadate; silane-passivated coverslips; rise of TPX2 intensity at single pixels of individual de novo MTs before the first branch, normalised by the fluorescence of a single GFP-TPX2 molecule.

As for “Full-length TPX2 with N-terminal Strep II-6xHis-GFP-TEV site tags (natural protein)”, the binding rate (molecules μm^−1 s^−1) was 0.4.
